Data: patent US20220119534A1 (DRAGONFLY THERAPEUTICS, published 2022)
Values joined by “and” are separate entries in the source; they are usually repeats but may differ in a detail not shown here. Equal entries are not always repeated.

Tests used:
[1] = biological target: T1, Human CD16a V158 (FcγRIIIa V158) (human, UniProt P08637 17-208, biotinylated); experiment: SPR; after pH 5.0, 40C, 2 wks
T1 construct: Bought recombinant receptor; also called hCD16aV; hFcγRIIIa V158

[2] = biological target: T2, Cynomolgus CD64 (FcγRI) (cynomolgus monkey, UniProt A0A2K5U901 33-309, Biotinylated and captured on the CAP chip (p-1094); the biotin site is not stated.); experiment: SPR 25C, biotinylated cyno CD64 captured on CAP chip
T2 construct: Bought recombinant receptor; also called cFcγRI; Cynomolgus FcγRI; not shown: The vendor's biotinylation and purification tag (ACRO FCA-C82E8)
T2 sequence (A0A2K5U901 entry or part of it limits assumed): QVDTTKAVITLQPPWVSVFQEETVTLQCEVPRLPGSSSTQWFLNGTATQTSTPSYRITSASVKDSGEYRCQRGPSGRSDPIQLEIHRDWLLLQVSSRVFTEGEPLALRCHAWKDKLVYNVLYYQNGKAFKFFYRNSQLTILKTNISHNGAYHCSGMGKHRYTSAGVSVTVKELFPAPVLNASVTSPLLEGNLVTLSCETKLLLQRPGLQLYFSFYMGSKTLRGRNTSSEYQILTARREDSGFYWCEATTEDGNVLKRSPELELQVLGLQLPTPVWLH

[3] = biological target: T3, Human CLEC12A expressed on cells (Ba/F3-hCLEC12A, PL21, HL60) (human, UniProt Q5QGZ9 1-265); experiment: cell-based or functional assay
T3 sequence: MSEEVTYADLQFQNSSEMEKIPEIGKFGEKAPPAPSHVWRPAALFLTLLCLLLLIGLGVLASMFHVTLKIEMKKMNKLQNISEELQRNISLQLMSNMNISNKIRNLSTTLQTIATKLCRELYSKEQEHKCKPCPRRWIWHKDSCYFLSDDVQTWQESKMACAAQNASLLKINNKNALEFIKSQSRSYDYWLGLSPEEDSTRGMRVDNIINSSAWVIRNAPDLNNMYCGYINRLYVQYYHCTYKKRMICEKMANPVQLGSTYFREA

[4] = biological target: T4, Human CLEC12A-His (recombinant, K244 WT) (human, UniProt Q5QGZ9 65-265); experiment: SPR, two-state fit; control sample
T4 construct: Made in house (Dragonfly Tx); also called hCLEC12A; hCLEC12A-His; not shown: His tag
T4 sequence: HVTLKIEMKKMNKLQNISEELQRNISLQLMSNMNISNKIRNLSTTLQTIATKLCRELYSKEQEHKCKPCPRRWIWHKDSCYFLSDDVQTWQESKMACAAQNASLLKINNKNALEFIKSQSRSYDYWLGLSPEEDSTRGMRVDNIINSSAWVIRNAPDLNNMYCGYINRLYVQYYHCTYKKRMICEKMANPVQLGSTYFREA

[5] = biological target: T5, mFc-hNKG2D (recombinant mFc-tagged human NKG2D dimer) (human, UniProt P26718 73-216); experiment: SPR; control sample
T5 construct: extracellular domain; Made in house; not shown: mouse Fc tag
T5 sequence (looked up): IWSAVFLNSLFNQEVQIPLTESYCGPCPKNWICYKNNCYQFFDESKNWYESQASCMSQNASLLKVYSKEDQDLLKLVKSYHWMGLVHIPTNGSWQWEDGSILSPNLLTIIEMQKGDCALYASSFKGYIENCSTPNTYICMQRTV

[6] = biological target: T1, Human CD16a V158 (FcγRIIIa V158); experiment: SPR; control sample
[7] = biological target: T3, Human CLEC12A expressed on cells …; experiment: cell-based or functional assay; remark: listed apart in the source

T1 sequence (P08637 17-208 F176V limits assumed): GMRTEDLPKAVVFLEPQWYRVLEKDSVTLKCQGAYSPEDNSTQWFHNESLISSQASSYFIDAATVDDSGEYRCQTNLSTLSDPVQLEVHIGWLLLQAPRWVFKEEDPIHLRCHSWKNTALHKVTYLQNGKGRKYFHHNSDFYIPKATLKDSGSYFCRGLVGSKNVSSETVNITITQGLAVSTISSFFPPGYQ

B1: AB0089 TriNKET (bispecific antibody, human IgG1, kappa)
chain: QLQLQESGPGLVKPSETLSLTCTVSGFSLTNYGLHWIRQPPGKCLEWIGVIWVGGATDYNPSLKSRVTISVDTSKNQFSLKLSSVQAADTAVYYCAKGDYGDTLDYWGQGTLVTVSSGGGGSGGGGSGGGGSGGGGSDIQMTQSPSSLSASVGDRVTITCHASQNINFWLSWYQQKPGKAPKLLIYEASNLHTGVPSRFSGSGSGTDFTLTISSLQPEDFATYYCQQSHSYPLTFGCGTKLEIKGSDKTHTCPPCPAPELLGGPSVFLFPPKPKDTLMISRTPEVTCVVVDVSHEDPEVKFNWYVDGVEVHNAKTKPREEQYNSTYRVVSVLTVLHQDWLNGKEYKCKVSNKALPAPIEKTISKAKGQPREPRVYTLPPCRDELTKNQVSLTCLVKGFYPSDIAVEWESNGQPENNYKTTPPVLVSDGSFTLYSKLTVDKSRWQQGNVFSCSVMHEALHNHYTQKSLSLSPG
heavy: EVQLVESGGGLVKPGGSLRLSCAASGFTFSSYSMNWVRQAPGKGLEWVSSISSSSSYIYYADSVKGRFTISRDNAKNSLYLQMNSLRAEDTAVYYCARGAPIGAAAGWFDPWGQGTLVTVSSASTKGPSVFPLAPSSKSTSGGTAALGCLVKDYFPEPVTVSWNSGALTSGVHTFPAVLQSSGLYSLSSVVTVPSSSLGTQTYICNVNHKPSNTKVDKKVEPKSCDKTHTCPPCPAPELLGGPSVFLFPPKPKDTLMISRTPEVTCVVVDVSHEDPEVKFNWYVDGVEVHNAKTKPREEQYNSTYRVVSVLTVLHQDWLNGKEYKCKVSNKALPAPIEKTISKAKGQPREPQVCTLPPSRDELTENQVSLTCLVKGFYPSDIAVEWESNGQPENNYKTTPPVLDSDGSFFLYSWLTVDKSRWQQGNVFSCSVMHEALHNHYTQKSLSLSPG
light: DIQMTQSPSSVSASVGDRVTITCRASQGISSWLAWYQQKPGKAPKLLIYAASSLQSGVPSRFSGSGSGTDFTLTISSLQPEDFATYYCQQGVSFPRTFGGGTKVEIKRTVAAPSVFIFPPSDEQLKSGTASVVCLLNNFYPREAKVQWKVDNALQSGNSQESVTEQDSKDSTYSLSSTLTLSKADYEKHKVYACEVTHQGLSSPVTKSFNRGEC
notes: F3' format heterodimer of three chains; human IgG1 Fc with EW-RVT and Y349C/S354C mutations; also called AB0089 Lot AB0089-002; CLEC12A TriNKET AB0089
Q: With B1 as the binder, how does the Kd [1] read?
A: 383 nM

Q: And the koff [1]?
A: 0.0289 s⁻¹

Q: And the kon [1]?
A: 75400 M⁻¹ s⁻¹

Q: What about the Kd [2] of the same binder?
A: 1.5 nM and 1.8 nM and 1.2 nM

Q: What about the koff [2] of the same binder?
A: 8.1e-05 s⁻¹ and 9.5e-05 s⁻¹ and 6.6e-05 s⁻¹

Q: And the kon [2]?
A: 55000 M⁻¹ s⁻¹ and 54000 M⁻¹ s⁻¹

Q: What about the “EC50, KHYG1-CD16aV cytotoxicity assay; after 4 wks 40C in CST pH 7.0” value [3] of the same binder?
A: 0.16 nM

Q: And the “EC50, KHYG1-CD16aV cytotoxicity assay; control sample” value [3]?
A: 0.13 nM

Q: And the Kd [4]?
A: 1 nM

Q: And the Kd [5]?
A: 772 nM

Q: And the koff [5]?
A: 0.135 s⁻¹

Q: And the kon [5]?
A: 175000 M⁻¹ s⁻¹

Q: What about the Kd [6] of the same binder?
A: 323 nM

Q: What about the koff [6] of the same binder?
A: 0.0276 s⁻¹

Q: What about the kon [6] of the same binder?
A: 85300 M⁻¹ s⁻¹

Q: And the “EC50, cytotoxicity potency; after pH 8, 40C, 2 wks” value [7]?
A: 0.23 nM

Q: What about the “EC50, cytotoxicity potency; control sample” value [7] of the same binder?
A: 0.11 nM
